This is an account of results in patent publication US20020177203A1, “Alpha2 subunit of prolyl 4-hydroxylase” (priority 1996, published 2002).

In general, Km refers to the substrate concentration at which the rate is half of its maximum.

Substrate in data set [1]: O=C1O[C@H]([C@@H](O)CO)C(O)=C1O
Kind of data set: Prolyl 4-hydroxylase activity assay (decarboxylation of 2-oxo[1-14C]glutarate), type 1 enzyme. The class given is biochemical, human. The note with it: other: α12β2, recombinant enzyme from insect cells, 0.1% Triton X-100 extract; pH 7.8.

Substrate in data set [2]: O=C1O[C@H]([C@@H](O)CO)C(O)=C1O
The data set is described as follows: Prolyl 4-hydroxylase activity assay (decarboxylation of 2-oxo[1-14C]glutarate), type 2 enzyme. The class given is biochemical. The note with it: other: α22β2 (mouse α2, human PDI/β), recombinant enzyme from insect cells; pH 7.8.

B1: human type 1 prolyl 4-hydroxylase tetramer (α12β2) (Homo sapiens) (protein)
chain: HPGFFTSIGQMTDLIHTEKDLVTSLKDYIKAEEDKLEQIKKWAEKLDRLTSTATKDPEGFVGHPVNAFKLMKRLNTEWSELENLVLKDMSDGFISNLTIQRQYFPNDEDQVGAAKALLRLQDTYNLDTDTISKGNLPGVKHKSFLTAEDCFELGKVAYTEADYYHTELWMEQALRQLDEGEISTIDKVSVLDYLSYAVYQQGDLDKALLLTKKLLELDPEHQRANGNLKYFEYIMAKEKDVNKSASDDQSDQKTTPKKKGVAVDYLPERQKYEMLCRGEGIKMTPRRQKKLFCRYHDGNRNPKFILAPAKQEDEWDKPRIIRFHDIISDAEIEIVKDLAKPRLRRATISNPITGDLETVHYRISKSAWLSGYENPVVSRINMRIQDLTGLDVSTAEELQVANYGVGGQYEPHFDFARKDEPDAFKELGTGNRIATWLFYMSDVSAGGATVFPEVGASVWPKKGTAVFWYNLFASGEGDYSTRHAACPVLVGNKWVSNKWLHERGQEFRRPCTLSELE
notes: made in house; host or cells: Spodoptera frugiperda Sf9 insect cells (baculovirus co-infection); 0.1% Triton X-100 extract
Consider B1, for which, in data set [1], the Km turned out to be 330 µM.

B2: mouse/human type 2 prolyl 4-hydroxylase tetramer (α22β2) (Mus musculus) (protein)
chain: WVQAEFFTSIGHMTDLIYAEKDLVQSLKEYILVEEAKLAKIKSWASKMEALTSRSAADPEGYLAHPVNAYKLVKRLNTDWPALGDLVLQDASAGFVANLSVQRQFFPTDEDESGAARALMRLQDTYKLDPDTISRGELPGTKYQAMLSVDDCFGLGRSAYNEGDYYHTVLWMEQVLKQLDAGEEATVTKSLVLDYLSYAVFQLGDLHRAVELTRRLLSLDPSHERAGGNLRYFERLLEEERGKSLSNQTDAGLATQENLYERPTDYLPERDVYESLCRGEGVKLTPRRQKKLFCRYHHGNRVPQLLIAPFKEEDEWDSPHIVRYYDVMSDEEIERIKEIAKPKLARATVRDPKTGVLTVASYRVSKSSWLEEDDDPVVARVNRRMQHITGLTVKTAELLQVANYGMGGQYEPHFDFSRSDDEDAFKRLGTGNRVATFLNYMSDVEAGGATVFPDLGAAIWPKKGTAVFWYNLLRSGEGDYRTRHAACPVLVGCKWVSNKWFHERGQEFLRPCGTTEVD
notes: the cDNA clones, considered in combination, cover the whole coding region of the mouse α2 subunit; made in house; host or cells: Spodoptera frugiperda Sf9 insect cells (baculovirus pVL1392 construct, co-infection with PDI/β virus); 0.1% Triton X-100 extract
Turning to B2, the Km in data set [2] stood at 340 µM.
